From US20070128217A1 (priority 2003, published 2007) come the findings set out here.

The assay deals with SARS-CoV preparation (Frankfurt 1 strain) (SARS-CoV strain Frankfurt 1).

B1: SC03-015 (scFv)
scFv: AMAEVQLVESGGGVVRPGGSLRLSCAASGFTFDDYGMSWVRQAPGKGLEWVSGINWNGGSTGYADSVKGRFTISRDNAKNSLYLQMNSLRAEDTAVYYCARGLSLRPWGQGTLVTVSRGGGGSGGGGSGGGGSSELTQDPAVSVALGQTVRITCQGDSLRSYYASWYQQKPGQAPVLVIYGKNNRPSGIPDRFSGSSSGNTASLTITGAQAEDEADYYCNSRDSSGNHVVFGGGTKLTVLGAAA
Take B1: the OD492nm was found to be 0.796 OD492nm.

B2: SC03-006 (scFv)
scFv: SMAEVQLVESGGGLVQPGGSLRLSCAASGFTFSGYPMHWVRQAPGKGLEWVAVISYDGSNKYYADSVKGRFTISRDNSKNTLYLQMNSLRAEDTAVYYCAKDGSPRTPSFDYWGQGTLVTVLEGTGGSGGTGSGTGTSELDIQMTQSPHSLSASVGDRVTITCRASQGISNYLAWYQQKPGKVPKLLIYAASTLQSGVPSRFSGSGSGTDFTLTISSLQPEDVGVYYCQQRFRTPVTFGQGTKLEIKRAAA
B2 had an OD492nm of 1.06 OD492nm.
